For orientation: stoichiometry N means a count of units in the complex or per binding partner.

In the test the target is LrsL (quorum quenching lactonase of Labrenzia sp. VG12), recombinant catalytic domain without the N-terminal 47 residues (Labrenzia sp. VG12). Briefly: SEC-MALS; Superdex 200 10/300; 5.5 mg/ml LrsL injected; 20 mM HEPES, pH 7.5, 200 mM NaCl, 1 mM TCEP, 0.01% NaN3. On the technique in general: SEC sorts molecules by how far they enter the pores of the column.

As to “LrsL (quorum quenching lactonase of Labrenzia sp. VG12), recombinant catalytic domain without the N-terminal 47 residues (enzyme)”, the stoichiometry N was determined as 2.

The values above are taken from publication PMC9441902.
